Measurements reported in the Immune Epitope Database (IEDB).
pKd: −log10 of the molar value.

Columns and labels:
HLA-A*69:01 [1] = assay: IEDB peptide-MHC binding, purified MHC/competitive/fluorescence; filed as Kd, often an IC50 or EC50 that approximates it; ≥ and ≤ were set here for values at or beyond the usual limits of such assays; settings: source organism: Burkholderia mallei ATCC 23344
HLA-B*39:01 [2] = assay: as above; settings: source organism: Burkholderia mallei ATCC 23344
HLA-B*08:01 = assay: as above
HLA-A*01:01 [3] = assay: as above
HLA-A*26:01 = assay: IEDB peptide-MHC binding, purified MHC/direct/fluorescence; filed as Kd, often an IC50 or EC50 that approximates it; ≥ and ≤ were set here for values at or beyond the usual limits of such assays
HLA-B*40:01 [4] = assay: as above
HLA-B*58:01 [5] = assay: as above
HLA-B*18:01 = assay: as above
HLA-B*27:05 [6] = assay: as above
HLA-A*31:01 = assay: as above
HLA-B*15:01 = assay: as above
HLA-B*07:02 [7] = assay: as above; settings: source organism: Burkholderia mallei
HLA-B*46:01 = assay: as above
HLA-A*11:01 [8] = assay: as above
HLA-B*51:01 [9] = assay: as above
HLA-B*15:09 = assay: as above; settings: source organism: Burkholderia mallei ATCC 23344
HLA-B*38:01 = assay: as above
HLA-B*48:01 = assay: as above
HLA-B*57:01 = assay: as above
HLA-B*15:17 = assay: as above
HLA-A*03:01 = assay: as above
HLA-A*02:01 = assay: as above
HLA-B*40:01 [10] = assay: IEDB peptide-MHC binding, purified MHC/competitive/fluorescence; filed as Kd, often an IC50 or EC50 that approximates it; ≥ and ≤ were set here for values at or beyond the usual limits of such assays; settings: source organism: Giardia lamblia ATCC 50803
HLA-A*30:02 = assay: as above; settings: source organism: Giardia lamblia ATCC 50803
HLA-B*58:01 [11] = assay: as above; settings: source organism: Giardia lamblia ATCC 50803
HLA-B*27:05 [12] = assay: as above; settings: source organism: Giardia lamblia ATCC 50803
HLA-B*44:02 = assay: as above; settings: source organism: Giardia lamblia ATCC 50803
HLA-B*07:02 [13] = assay: as above; settings: source organism: Giardia lamblia ATCC 50803
HLA-A*66:01 = assay: as above; settings: source organism: Giardia lamblia ATCC 50803
HLA-A*11:01 [14] = assay: as above; settings: source organism: Giardia lamblia ATCC 50803
HLA-A*30:01 = assay: as above
HLA-B*53:01 = assay: as above; settings: source organism: Giardia lamblia ATCC 50803
HLA-B*51:01 [15] = assay: as above; settings: source organism: Giardia lamblia ATCC 50803
HLA-B*14:02 = assay: as above; settings: source organism: Giardia lamblia ATCC 50803
HLA-A*29:02 = assay: IEDB peptide-MHC binding, purified MHC/direct/fluorescence; filed as Kd, often an IC50 or EC50 that approximates it; ≥ and ≤ were set here for values at or beyond the usual limits of such assays; settings: source organism: Giardia lamblia ATCC 50803
HLA-A*02:12 = assay: as above; settings: source organism: Giardia lamblia ATCC 50803
HLA-B*39:01 [16] = assay: as above; settings: source organism: Giardia lamblia ATCC 50803
HLA-A*24:03 = assay: as above; settings: source organism: Giardia lamblia ATCC 50803
HLA-A*68:02 = assay: as above; settings: source organism: Giardia lamblia ATCC 50803
HLA-A*02:19 = assay: as above; settings: source organism: Giardia lamblia ATCC 50803
HLA-A*23:01 = assay: as above; settings: source organism: Giardia lamblia ATCC 50803
HLA-B*27:03 = assay: as above; settings: source organism: Giardia lamblia ATCC 50803
HLA-A*02:03 = assay: as above; settings: source organism: Giardia lamblia ATCC 50803
HLA-A*69:01 [17] = assay: as above; settings: source organism: Mycobacterium tuberculosis
HLA-A*01:01 [18] = assay: as above; settings: source organism: Mycobacterium tuberculosis
[19] = source organism: Burkholderia mallei ATCC 23344
[20] = source organism: Burkholderia mallei
[21] = source organism: Giardia lamblia ATCC 50803
[22] = source organism: Mycobacterium tuberculosis variant bovis BCG str. Pasteur 1173P2
[23] = source organism: Mycobacterium tuberculosis str. Haarlem
[24] = source organism: Mycobacterium tuberculosis

EPFSRRHPL
pKd (HLA-A*69:01 [1]): 6.68
pKd (HLA-B*39:01 [2]): 6.35
pKd (HLA-B*08:01; [19]): 7.23
pKd (HLA-A*01:01 [3]; [19]): 5.49
pKd (HLA-A*26:01; [19]): ≤ 4.70
pKd (HLA-B*40:01 [4]; [20]): ≤ 4.70
pKd (HLA-B*58:01 [5]; [20]): ≤ 4.70
pKd (HLA-B*18:01; [20]): ≤ 4.70
pKd (HLA-B*27:05 [6]; [20]): ≤ 4.70
pKd (HLA-A*31:01; [20]): ≤ 4.70
pKd (HLA-B*15:01; [20]): ≤ 4.70
pKd (HLA-B*07:02 [7]): 8.00
pKd (HLA-B*46:01; [20]): ≤ 4.70
pKd (HLA-A*11:01 [8]; [20]): ≤ 4.70
pKd (HLA-B*51:01 [9]; [20]): ≤ 4.70
pKd (HLA-B*15:09): ≤ 4.70
pKd (HLA-B*38:01; [19]): ≤ 4.70
pKd (HLA-B*48:01; [20]): ≤ 4.70
pKd (HLA-B*57:01; [20]): ≤ 4.70
pKd (HLA-B*15:17; [20]): 6.44
pKd (HLA-A*03:01; [20]): ≤ 4.70
pKd (HLA-A*02:01; [20]): ≤ 4.70

MTFPLHFRS
pKd (HLA-B*40:01 [10]): ≤ 5.30
pKd (HLA-A*30:02): ≤ 5.30
pKd (HLA-B*58:01 [11]): ≤ 5.30
pKd (HLA-B*27:05 [12]): ≤ 5.30
pKd (HLA-B*08:01; [21]): ≤ 5.30
pKd (HLA-A*01:01 [3]; [21]): ≤ 5.30
pKd (HLA-B*44:02): ≤ 5.30
pKd (HLA-B*07:02 [13]): ≤ 5.30
pKd (HLA-A*66:01): ≤ 5.30
pKd (HLA-A*11:01 [14]): 6.95
pKd (HLA-A*30:01; [21]): ≤ 5.30
pKd (HLA-B*53:01): ≤ 5.30
pKd (HLA-B*51:01 [15]): ≤ 5.30
pKd (HLA-B*14:02): ≤ 5.30
pKd (HLA-A*26:01; [21]): ≤ 4.70
pKd (HLA-A*29:02): 7.55
pKd (HLA-A*02:12): ≤ 4.70
pKd (HLA-B*39:01 [16]): ≤ 4.70
pKd (HLA-A*24:03): ≤ 4.70
pKd (HLA-B*18:01; [21]): ≤ 4.70
pKd (HLA-A*68:02): ≥ 9.00
pKd (HLA-A*02:19): ≤ 4.70
pKd (HLA-B*15:01; [21]): ≤ 4.70
pKd (HLA-A*23:01): ≤ 4.70
pKd (HLA-B*46:01; [21]): ≤ 4.70
pKd (HLA-B*27:03): ≤ 4.70
pKd (HLA-A*03:01; [21]): ≤ 4.70
pKd (HLA-A*02:01; [21]): ≤ 4.70
pKd (HLA-A*02:03): ≤ 4.70

RPRLWRSVI
pKd (HLA-B*08:01; [22]): 6.49
pKd (HLA-A*30:01; [22]): ≤ 4.70
pKd (HLA-A*26:01; [23]): ≤ 4.70
pKd (HLA-B*40:01 [4]; [24]): ≤ 4.70
pKd (HLA-A*69:01 [17]): ≤ 4.70
pKd (HLA-B*58:01 [5]; [24]): ≤ 4.70
pKd (HLA-B*18:01; [24]): ≤ 4.70
pKd (HLA-B*27:05 [6]; [24]): ≤ 4.70
pKd (HLA-A*31:01; [24]): ≤ 4.70
pKd (HLA-A*01:01 [18]): ≤ 4.70
pKd (HLA-B*15:01; [24]): ≤ 4.70
pKd (HLA-B*46:01; [24]): ≤ 4.70
pKd (HLA-A*11:01 [8]; [24]): ≤ 4.70
pKd (HLA-B*51:01 [9]; [24]): 6.02
pKd (HLA-B*38:01; [23]): ≤ 4.70
pKd (HLA-B*48:01; [24]): ≤ 4.70
pKd (HLA-B*57:01; [24]): ≤ 4.70
pKd (HLA-B*15:17; [24]): 5.59
pKd (HLA-A*03:01; [24]): ≤ 4.70
pKd (HLA-A*02:01; [24]): ≤ 4.70
